Values of other authors, collected in paper PMC3479961.

Tests used:
Assay in all cases: surface plasmon resonance
plasmin (Homo sapiens) = plasmin (Homo sapiens) (UniProt P00747)
[1] = molecular target: plasminogen (Homo sapiens) (UniProt P00747)
tPA (Homo sapiens) = tPA (Homo sapiens) (UniProt P00750)
Sequence of UniProt P00750 (P00750 36-562): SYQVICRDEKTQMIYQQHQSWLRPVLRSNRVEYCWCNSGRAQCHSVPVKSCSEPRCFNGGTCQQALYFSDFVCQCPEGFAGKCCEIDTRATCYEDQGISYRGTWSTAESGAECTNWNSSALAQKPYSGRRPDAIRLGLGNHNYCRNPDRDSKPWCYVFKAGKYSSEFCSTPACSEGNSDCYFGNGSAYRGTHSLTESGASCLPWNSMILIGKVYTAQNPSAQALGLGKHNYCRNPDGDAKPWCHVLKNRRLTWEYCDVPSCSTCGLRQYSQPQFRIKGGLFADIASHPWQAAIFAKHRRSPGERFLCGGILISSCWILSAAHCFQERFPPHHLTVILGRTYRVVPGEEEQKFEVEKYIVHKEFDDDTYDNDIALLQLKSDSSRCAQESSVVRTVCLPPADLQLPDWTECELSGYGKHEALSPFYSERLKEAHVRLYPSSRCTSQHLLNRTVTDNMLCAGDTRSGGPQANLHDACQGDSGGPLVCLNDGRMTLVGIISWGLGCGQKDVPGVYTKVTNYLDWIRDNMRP

Kd (plasmin (Homo sapiens)): 360 nM
Kd [1]: 1810 nM
Kd (tPA (Homo sapiens)): 450 nM
Substance: S100A10 (from UniProt P60903)
